Two molecules from patent publication US20250092135A1 (NANJING LEADS BIOLABS, published 2025) can be followed below.

One assay deals with T1, human GPRC5D protein (human, UniProt Q9NZD1 1-345).
T1 construct: NCI-H929 cells express it endogenously in the functional assays; also called HuGPRC5D; huGPRC5D
The assay can be described thus: flow cytometry, HEK293T cells stably expressing human GPRC5D (sheet: 293T-huGPRC5D), PE anti-human IgG Fc secondary, MFI. As to the method: (2) Whether the anti-CD3/anti-GPRC5D bispecific antibodies in the present invention could bind to HEK293T cells stably expressing the human GPRC5D protein was determined by cell binding experiments. […] The plate was centrifuged at room temperature at 400×g, and then the supernatant was discarded. The cells were washed twice with PBS and centrifuged. The supernatant was discarded. The cell pellet was resuspended in fluorescent secondary antibody R-PE-conjugated AffiniPure Goat Anti-Human IgG, Fcγ Fragment Specific (Jackson ImmunoResearch, Cat #109-116-098) diluted in a 1:200 ratio. The cells were incubated in the dark at 4° C. for 30 min. The cells were washed twice with PBS, and 100 μL of PBS was added to each well to resuspend the cells. Fluorescence signals were detected using a Beckman Cytoflex flow cytometer.

For assay [1], the target named is T2, cynomolgus monkey GPRC5D protein (cynomolgus monkey, UniProt Q9NZD1 1-343 (human entry)).
T2 construct: also called CynoGPRC5D; on HEK293T-CynoGPRC5D cells
T2 chain: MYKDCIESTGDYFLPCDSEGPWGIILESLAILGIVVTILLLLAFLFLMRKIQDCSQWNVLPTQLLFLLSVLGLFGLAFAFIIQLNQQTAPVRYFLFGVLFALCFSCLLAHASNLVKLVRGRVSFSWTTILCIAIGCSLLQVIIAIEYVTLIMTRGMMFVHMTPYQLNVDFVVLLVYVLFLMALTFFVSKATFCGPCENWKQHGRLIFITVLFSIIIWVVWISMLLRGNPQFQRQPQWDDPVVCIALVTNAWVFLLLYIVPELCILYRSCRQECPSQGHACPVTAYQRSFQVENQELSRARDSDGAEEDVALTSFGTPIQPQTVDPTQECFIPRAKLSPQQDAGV
The assay can be described thus: flow cytometry, HEK293T-CynoGPRC5D cells (sheet: 293T-cynoGPRC5D), PE anti-human IgG Fc secondary, MFI. Here is the method: The HEK293T-CynoGPRC5D cell line shown in Table 2 was subjected to enzymatic digestion to obtain a single cell suspension. The single cell suspension was centrifuged at room temperature at 400×g, and then the medium was discarded. The cell pellet was washed once with PBS and then resuspended in the serially diluted bifunctional antibodies shown in Table 5 (at an initial concentration of 115.6 nM, 4-fold gradient dilution, 8 concentration points in total), and the cells were incubated at 4° C. for 30 min. The cells were washed once with PBS, and then fluorescent secondary antibody R-PE-conjugated AffiniPure Goat Anti-Human IgG, Fcγ Fragment Specific (Jackson ImmunoResearch, Cat #109-116-098) diluted in a 1:200 ratio was added. The cells were incubated in the dark at 4° C. for 30 min. The cells were washed twice with PBS and then resuspended, and finally, two-channel fluorescence signals were detected using a Beckman Cytoflex flow cytometer.

The target of assay [2] is T3, Cynomolgus monkey CD3D & CD3E heterodimer protein (cynomolgus monkey, UniProt Q95LI5 22-117; Q95LI8 22-105).
T3 construct: same catalogue number; also called monkey CD3 protein (Acro biosystems, Cat #CDD-C52W4)
T3 sequence (Q95LI5 22-117 limits assumed, chain 1 of 2): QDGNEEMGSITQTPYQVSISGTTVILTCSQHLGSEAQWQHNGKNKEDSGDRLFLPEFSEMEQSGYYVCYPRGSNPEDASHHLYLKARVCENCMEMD
T3 sequence (Q95LI8 22-105 limits assumed, chain 2 of 2): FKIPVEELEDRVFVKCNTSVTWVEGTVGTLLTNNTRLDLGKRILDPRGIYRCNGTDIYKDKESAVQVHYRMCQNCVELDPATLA
The assay can be described thus: BLI (ForteBio Octet RED96), antibody on AHC sensor, 100 nM analyte, 1:1 model. An excerpt:
(§1) In this experiment, the binding affinity of the bispecific antibody [0913] for human CD3D & CD3E heterodimer protein (Sino Biological, Cat #CT038-H2508H) and monkey CD3D & CD3E heterodimer protein (Acro biosystems, Cat #CDD-C52W4) was detected using ForteBio Octet RED96 according to the manufacturer's instructions.
(§2) Briefly, an AHC sensor (ForteBio, Cat #18-5060) was placed in a running buffer (1×PBS, Hyclone, Cat #SH30256.01, containing 0.02% Tween 20, pH 7.0) and pre-equilibrated at room temperature for 10 min.
(§3) The experimental data were fitted and calculated using a Fortebio Data Analysis software 1:1 binding model.

Assay [3] addresses T4, Human CD3D & CD3E heterodimer protein (human, UniProt P07766 23-126; P04234 22-105).
T4 construct: Bought recombinant heterodimer; also called human CD3 protein (Sino Biological, Cat #CT038-H2508H)
The description is as above.
Text: as §1, §2, §3

The target of assay [4] is T5, human MUC16 protein endogenously expressed on cells (human, UniProt Q8WXI7 1-14507).
T5 construct: whole, on cells; also called MUC16 on OVCAR3 cells; MUC16 in ovarian carcinoma tissue
Nature of the assay: flow cytometry, OVCAR3 cells (endogenous human MUC16), PE anti-human IgG Fc secondary, MFI; EC50 table under the plot, unit from the axis Conc.(nM). As to the method: (1) Whether the anti-CD3/anti-MUC16 bispecific antibodies in the present invention could bind to the MUC16 protein endogenously expressed on human ovarian carcinoma cells (OVCAR3) (Cell Bank of Type Culture Collection Committee of the Chinese Academy of Sciences, Cat #TCHu228) was determined by cell binding experiments.
The experiments were performed using flow cytometry. OVCAR3 cells were digested, centrifuged and collected. The cells were resuspended in a PBS solution, and seeded into a 96-well plate (Corning, Cat #3799) at 1×10⁵ cells/well. The 96-well plate was centrifuged and then the supernatant was discarded. 100 μL of the serially diluted test bispecific antibody (at a maximum concentration of 200 nM, 5-fold dilution from 100 nM, 9 concentration points in total) was added to the OVCAR3 cells. The plate was incubated at 4° C. for 30 min and centrifuged (1000 rpm, 5 min), and then the supernatant was discarded. 100 μL of PBS solution was added to each well, and the cells were washed twice. 100 μL of fluorescent secondary antibody R-PE-conjugated AffiniPure Goat Anti-Human IgG, Fcγ Fragment Specific (Jackson ImmunoResearch, Cat #109-116-098) diluted in a ratio of 1:200 was then added. The cells were incubated at 4° C. for 30 min. After the cells were washed twice with the PBS solution, 100 μL of PBS solution was added to each well to resuspend the cells, and finally, fluorescence signals were detected using a BD Accuri C5 (BD Bioscience) flow cytometer according to the manufacturer's instructions. REGN4018 was used as a positive control.

Assay [5] has as its target T6, rhesus monkey MUC16 protein (ECT_TM RhMuc16) on 293T cells (rhesus monkey).
T6 chain: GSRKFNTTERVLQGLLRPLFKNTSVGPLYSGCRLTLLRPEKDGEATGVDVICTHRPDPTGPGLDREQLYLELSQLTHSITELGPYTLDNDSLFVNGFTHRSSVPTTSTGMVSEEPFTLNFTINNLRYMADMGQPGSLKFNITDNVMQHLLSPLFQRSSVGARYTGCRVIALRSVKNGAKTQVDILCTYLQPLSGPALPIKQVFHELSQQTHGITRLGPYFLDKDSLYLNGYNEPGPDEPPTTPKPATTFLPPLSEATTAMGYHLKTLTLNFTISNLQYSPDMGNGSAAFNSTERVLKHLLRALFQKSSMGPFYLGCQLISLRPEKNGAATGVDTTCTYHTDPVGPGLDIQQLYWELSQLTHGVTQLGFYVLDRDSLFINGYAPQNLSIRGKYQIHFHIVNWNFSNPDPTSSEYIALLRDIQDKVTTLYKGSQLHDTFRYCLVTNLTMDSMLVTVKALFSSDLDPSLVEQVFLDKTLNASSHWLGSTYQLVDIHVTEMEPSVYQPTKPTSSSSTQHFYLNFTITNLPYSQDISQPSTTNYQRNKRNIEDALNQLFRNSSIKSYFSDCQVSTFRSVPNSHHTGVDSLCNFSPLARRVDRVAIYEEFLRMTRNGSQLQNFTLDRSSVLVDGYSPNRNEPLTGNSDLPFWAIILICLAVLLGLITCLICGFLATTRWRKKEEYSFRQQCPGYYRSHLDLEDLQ
Nature of the assay: flow cytometry, 293T/rhesus MUC16 cells as printed on the sheet and in the legend (the example, paragraph 611, speaks of cynomolgus MUC16), PE anti-human IgG Fc secondary, MFI; EC50 table under the plot, unit from the axis Conc.(nM). Here is the method:
Referring to the flow cytometry described above, the serially diluted test bispecific antibody (at an initial concentration of 100 nM, 5-fold dilution, 9 points) was added to the cells, and the plate was incubated at 4° C. for 30 min. The cells were washed twice with PBS, and then fluorescent secondary antibody R-PE-conjugated AffiniPure Goat Anti-Human IgG, Fcγ Fragment Specific was added. The cells were incubated at 4° C. for 30 min. The cells were washed twice with PBS and then resuspended, and finally, fluorescence signals were detected using a BD Accuri C5 (BD Bioscience) flow cytometer.

T4 sequence (P07766 23-126 limits assumed, chain 1 of 2): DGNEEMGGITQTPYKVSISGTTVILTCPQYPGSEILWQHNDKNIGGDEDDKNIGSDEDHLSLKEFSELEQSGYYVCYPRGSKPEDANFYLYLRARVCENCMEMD
T4 sequence (P04234 22-105 limits assumed, chain 2 of 2): as the sequence (Q95LI8 22-105 limits assumed, chain 2 of 2) above, with V5I, K15N, V20I, T32S, N33D, N34I, A64T, N74S, L83V counted along it
T1 sequence (Q9NZD1 whole entry): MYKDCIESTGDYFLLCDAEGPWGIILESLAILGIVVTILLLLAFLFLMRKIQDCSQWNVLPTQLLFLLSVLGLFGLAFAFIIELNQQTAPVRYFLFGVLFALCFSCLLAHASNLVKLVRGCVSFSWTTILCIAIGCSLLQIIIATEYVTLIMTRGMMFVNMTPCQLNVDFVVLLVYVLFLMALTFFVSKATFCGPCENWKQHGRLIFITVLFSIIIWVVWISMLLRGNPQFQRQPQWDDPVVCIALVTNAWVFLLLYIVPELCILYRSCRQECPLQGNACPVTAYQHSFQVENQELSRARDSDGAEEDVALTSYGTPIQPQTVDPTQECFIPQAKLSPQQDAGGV

B1: anti-CD3/GPRC5D bispecific antibody Bi-29H6-6 (bispecific antibody)
heavy 1: QVQLVQSGAEVKKPGASVKVSCKASGYTFTTHYMYWVRQAPGQGLEWIGGINPSNEATNFNEKFKTKATLTVDKSTSTAYMELSSLRSEDTAVYYCTRVGGLSYTMDYWGQGTLVTVSSASTKGPSVFPLAPSSKSTSGGTAALGCLVKDYFPEPVTVSWNSGALTSGVHTFPAVLQSSGLYSLSSVVTVPSSSLGTQTYICNVNHKPSNTKVDKKVEPKSCDKTHTCPPCPAPEAAGGPSVFLFPPKPKDTLMISRTPEVTCVVVAVSHEDPEVKFNWYVDGVEVHNAKTKPREEQYNSTYRVVSVLTVLHQDWLNGKEYKCKVSNKALAAPIEKTISKAKGQPREPQVCTLPPSRDELTKNQVSLSCAVKGFYPSDIAVEWESNGQPENNYKTTPPVLDSDGSFFLVSKLTVDKSRWQQGNVFSCSVMHEALHNHYTQKSLSLSPGK
heavy 2: not shown
light: not shown
notes: G56E variant of the 29H6 VH; also called anti-GPRC5D/CD3 bifunctional antibody Bi-29H6-6
In the case of B1, the “EC50 (read off the curve)” value in the assay with human GPRC5D protein was approximately 3 nM. Further, the “EC50 (read off the curve)” value in assay [1] is approximately 8 nM. In assay [2], this molecule yielded a Kd of 75.9 nM, an off-rate constant (koff) of 0.00631 s⁻¹ and a kon of 83200 M⁻¹ s⁻¹. In assay [3], this molecule showed an equilibrium dissociation constant (Kd) of 727 nM, an off-rate constant (koff) of 0.0158 s⁻¹ and an association rate constant (kon) of 21700 M⁻¹ s⁻¹.

B2: control antibody REGN4018 (bispecific antibody, human IgG4 S228P, kappa)
heavy 1: QVQLVESGGGLVKPGGSLRLSCAASGFTFSNYYMSWVRQAPGKGLEWISYISGRGSTIFYADSVKGRITISRDNAKNSLFLQMNSLRAEDTAVYFCVKDRGGYSPYWGQGTLVTVSSASTKGPSVFPLAPCSRSTSESTAALGCLVKDYFPEPVTVSWNSGALTSGVHTFPAVLQSSGLYSLSSVVTVPSSSLGTKTYTCNVDHKPSNTKVDKRVESKYGPPCPPCPAPPVAGPSVFLFPPKPKDTLMISRTPEVTCVVVDVSQEDPEVQFNWYVDGVEVHNAKTKPREEQFNSTYRVVSVLTVLHQDWLNGKEYKCKVSNKGLPSSIEKTISKAKGQPREPQVYTLPPSQEEMTKNQVSLTCLVKGFYPSDIAVEWESNGQPENNYKTTPPVLDSDGSFFLYSRLTVDKSRWQEGNVFSCSVMHEALHNHYTQKSLSLSLGK
heavy 2: EVQLVESGGGLVQPGRSLRLSCAASGFTFDDYSMHWVRQAPGKGLEWVSGISWNSGSIGYADSVKGRFTISRDNAKNSLYLQMNSLRAEDTALYYCAKYGSGYGKFYYYGMDVWGQGTTVTVSSASTKGPSVFPLAPCSRSTSESTAALGCLVKDYFPEPVTVSWNSGALTSGVHTFPAVLQSSGLYSLSSVVTVPSSSLGTKTYTCNVDHKPSNTKVDKRVESKYGPPCPPCPAPPVAGPSVFLFPPKPKDTLMISRTPEVTCVVVDVSQEDPEVQFNWYVDGVEVHNAKTKPREEQFNSTYRVVSVLTVLHQDWLNGKEYKCKVSNKGLPSSIEKTISKAKGQPREPQVYTLPPSQEEMTKNQVSLTCLVKGFYPSDIAVEWESNGQPENNYKTTPPVLDSDGSFFLYSRLTVDKSRWQEGNVFSCSVMHEALHNRFTQKSLSLSLGK
light: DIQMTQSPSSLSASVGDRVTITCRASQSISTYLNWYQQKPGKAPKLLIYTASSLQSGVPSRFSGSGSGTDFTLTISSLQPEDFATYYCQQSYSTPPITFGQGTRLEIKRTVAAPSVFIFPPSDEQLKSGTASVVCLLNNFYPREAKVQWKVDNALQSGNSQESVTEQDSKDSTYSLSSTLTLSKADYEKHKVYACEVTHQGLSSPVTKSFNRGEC
notes: Derived from US20190389966A1; heavy chains REGN4018-8767pH and REGN4018-G20, light chain REGN4018-8767pL; also called positive control
B2: the results for the 50% effective concentration (EC50) in assay [4] and in assay [5] were 1.45 nM and 3.74 nM, respectively.
